Test results: a protein production outcome set (Wang et al. 2014)

Test: label from the status in PepcDB records
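Also: failed if final PepcDB status was selected cloned or expressed and not failed if soluble or beyond.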

Sequence | protein production
MKFFSVFILAILSILCMPLIASTTNYDETLTKIETLQHSDLPAAINLIKTIESEFGAMSRLQQGRVLLFKGAASIYSGQYQTAIELLGQAEALLKDSEMLFSAYSYEATAYIALRHFNDAFIAMGKSLGLIERIEDTNLKRASYLRLASLYSAMGISEEVATYATKALALASESDVKDICGARLYLSVHQLEIASYAQAFDEFKSTRSYCESSGYPLIANIALKGMGESSLRLNEPQLAISYLLDSLKGYESFNFELEINSVHELLSEAYLLLQDSTKAELHAQYVMNLVDDSSNTELKHGASGVLAKIYAQKQQFEQAYEYSRKEQHYNQLIFDESRMKTLAYQAAKFNADEQAREINLLNKERELYIAQQMVKEREYTNMLMFITILVGGLFFLAILLVVGNLQKRRFMRMAKMDALTGVLNRGAGQDLGENMFVQAAARGGDYCVILFDLDHFKRINDSYGHGTGDWALKKVVEVLKPHIRNGDVFARIGGEEFALFLPYANEAKGLDVAEQCRSRIEAIDTHLSGHKFTITASFGVSGMTKDDLSLDPLLHRADMALYAAKSNGRNCVSCYQDALMCDKRVTNLTSELARQP | failed
MACFSDLSKECDMEGCRNHDFLPYKCEYCKLIFCEFHRNAEEHLCSKLKDMELNTVVLCEYCGIVLPDKKEDIQNHLIYKCLYKKKTKSILMCNKRDCKKVLNGINNYICKKCRKSFCLPHRYSDVHNCIKSDEEKSFFKSNIKKNKYILKVTTDGFINTTTHFFNSHTYIVC | failed
MTTIVPTSEENPFLAVVRFTSQLAWADAGPEAAEPEITRLCREAEESMVAEKWLELSSLMVTSAELVSSKISEKDLECTYTIICSIVKNAKSPEQVLEMVKAIASKVAQQPSDKASLRLKILFNLYNLVDHPYARFQVYMKALTLAVDGKVTEYIVSSFKKIDNFLKEWNIDIKDQRELFLAIANVLKENKSLVNESLKFLTKYLATFSNEDAQVLDEAKEEAVRAVIEFVKASSIFQCDLLDLPAVAQLEKDAKYAPVYQLLKIFLTQRLNAYTEFQNANSGFLQSYGLSNEDCVTKMRLLSLVDLASDESGKIPYTSIKDTLQVNEQDVELWIVKAITAKLIESALPNVNLGQSNGNLSEQSLRLGSIITTIESNKVTEEGSQASSSSAAAIQGLSVR | failed
MGHEAKHPIIIGITGNIGSGKSTVAALLRSWGYPVLDLDALAARARENKEEELKRLFPEAVVGGRLDRRALARLVFSDPERLKALEAVVHPEVRRLLMEELSRLEAPLVFLEIPLLFEKGWEGRLHGTLLVAAPLEERVRRVMARSGLSREEVLARERAQMPEEEKRKRATWVLENTGSLEDLERALKAVLAELTGGAKEGRG | not failed
PKKIMLVAGHGYNDPGAVGNGTNERDFIRKYITPNIAKYLRHAGHEVALYGGSSQSQDMYQDTAYGVNVGNKKDYGLYWVKSQGYDIVLEIHLDAAGESASGGHVIISSQFNADTIDKSIQDVIKNNLGQIRGVTPRNDLLNVNVSAEININYRLSELGFITNKNDMDWIKKNYDLYSKLIAGAIHGK | failed
MSFKRDRGDYKGRIDWFTIILYLLLVVAGWFAVCGASYDFDISHLFMMGGRPMMQLLWIGLAVVIGFMVLLMETDIFESLAPVFYAAMLGLLALTILIAPDIKGSHSWLVIGPLRLQPAEFAKVTTALFLAWKLNQNDFVLRGMKAYASTFAIILIPVLLILMQNETGSALVYIAFFLALYREGMSGVFIGIAFCAVLFFVTALKLQGDVWWGHTDAAEWSVVSMAFVIGFFLVRIYTKERGRFYVVAAGLTAVTYAVAIVLSYFVSVDFVLVAYGLLAALIVWALSMAIKRYVLSYALIAVFALCSVGYFYSVDYVFNKVMQPHQQMRIRVALGIEDDLRGGGYNVDQSKIAIGSGGFMGKGFLKGTQTKLKYVPEQDTDFIFCTVGEEQGFLGSVLLLIGYATLIIRIVALAERQTKVFSRVYGHSVAAILLFHLSINVGMVIGLVPVIGIPLPFFSYGGSSLWGFTLLIFIFLRLDADRDCR | failed
AIYVDLPNRQLKVKVADRRVISTTDAERQAVTPPGLQEAINDLVKKYTLARAFVRPSGTEDIVRVYAEANSQESADRLAYEVSLLVFQLAGGIGERPQP | not failed
MSLPRTLAFVSTLLLAAFCALPAQADSFIMRLLNKPVPGGVAVVDLGEEGPPPRAFYQGKPVLVVREEGRRWIAVVGIPLSTKPGPQKLEVRAATGNHEERFSVGSKHYREQRITLKNKRQVNPLPEDLKRIERELAEQTAAYRRFSPGLPSNLMLDKPVDGPLSSPFGLRRFFNGEERNPHSGLDFAVPAGTPIKAPAAGKVILIGDYFFNGKTVFVDHGQGFISMFCHLSKIDVKLGQQVPRGGVLGKVGATGRATGPHMHWNVSLNDARVDPAIFIGAFQPEGHHHHHH | not failed
MGFIQWCLAHLNYWTIMFLMAIESSFIPFPSEIIVPPAAWMAATGQNGLNVFLVILFATIGAGIGAAVNYILSLLLGRPIVYAFANSKLGHLCLINEEKVRYAERYFDKNGAVSTLVGRLIPAVRQLISIPAGLARMKFLPFISYTMLGAGIWNCILAAIGYNLAKVPGIETQEQLLEKVNKYSHEIGFSIMGVVVVVLLIMFYKKKRRSARKGN | failed
MGQSLPLLIRLIVVIWLTISMVTACPRAPTHLNHGRRTRGDNGYKLIVADGPNGYVPGKTYNLLLLGSRTHLKVQHFTHFTITAEAHTGARRPQAASPRRVGRFQLFSDSLTQFNDRCVNTVSEADDLPKTEVQVMWVAPESGSGCVSLSAMVYEGPRAWFADDGNLSTVICERKPDAAAAQKECCACDEAKYSFVFEGIWSNETHPKDYPFAIWLTHFSDVIGASHESNFSFWGENHIATAGFRSLAEWGSPAALETELRANGPKLRTLIKAAGLWYPNVNQNTSSKFRVDRKHPKVSLVSMFGPSPDWVVGISGLDLCTEDCSWKESMDFDLFPWDAGTDSGISYMSPNSETQPPERMYRITTMYPEDPRAPFYNPKSREMTPLAKLYLRREKIVSRNCDDEFLQALQLEVSDDAEEQDTRAECRVGDYSAWSPCSVSCGKGIRMRSRQYLYPAAADQNKCARQLVAKEMCVAAIPECADGPAQSKDRDDDEGENLANSQSLVGSNGEGAGLCKTSPWSVWSECSASCGIGITMRTRTFVNHLGRKRCPHITIVEKNKCMRPDCTYEQVELPDPQCPTSQWSDWSPCSSTCGRGVTIRTRLLLLENGPDKESCTQRMELHQQKECVNPIDCHINAEQAKDICVQAPDPGPCRGTYMRYAYDPQNQHCYSFTYGGCRGNRNNFLTENDCLNTCNVLRSPYSSRVDQPRACVLSDWSVWSPCSVSCGVGVSESRRYVVTEPQNGGQPCSKRLVKSRSCAMPAC | failed
MIESIQELLQKEAQAVLNIPVTDAYEKAVELIVEQIHRKKGKLVTSGMGKAGQIAMNIATTFCSTGIPSVFLHPSEAQHGDLGILQENDLLLLISNSGKTREIVELTQLAHNLNPGLKFIVITGNPDSPLASESDVCLSTGHPAEVCTLGMTPTTSTTVMTVIGDILVVQTMKRTEFTIEEYSKRHHGGYLGEKSRKLCVK | not failed
STHKLIRQDNSELIYYLDKQAEHNKTLLVLMQGSDCNSIKNNTFIQETFGRWLPSSDVLMVEKYGITAQLTYSDDNGEREDCPKNYKLHDNPNQRLADYLAVLDKLSPNYTNIVLLGGSEGATMVHLVVAERHDISAAIALNGGGRFFLDDVLYNIRNTTPKEHVEEAINSFQQLANAIITNQIGDEQFVSEHSKLWWQQYLAIDLLEVIKRNTQTPVLIVQTLDDINVDVAAFHQLSQEITQPNVTFIKYDKLNHGFYNQQGERLTGKVVQDIQQWYAQYNK | not failed
MSPPARKLDPWTLLLWLGLAAVSLVALYSTTHGPAAEYIGPGVQDNFARQFLWIGVSIAGIAATLLVPVRFLRYAAYPAYAATLVLLVLCLVMGVEVHGTRAWLALGPLRLQVSELAKVGTVLAVAQLLSERHTRAGQDLSFALKAAGLIVAPALLVILQNDLGTALVFFGLVPIMLFWSGLSLSVLLLMVSPAIAGYFALVSTPAALGFAVLFTGGLWAYSGRRSIAALAATFTAGVTALISFVLRKILQPYQVDRLLSFTNPGAEQFRQGVGFHLVQSKAALYSGGIWGTGFMQGPQTQGAYVPEQTTDFIFSVVAEEFGLVGSLVVLGLLAALLLRLIKLGADVKHPFGSIVAAGAVGVYLIHIFINIGMVTGMLPVIGLPLPFLSYGGSAMLANTALLAIVLNTHMRREDLSIYGY | failed
MDKLRVPFHRPYVNLRRCSERLVMHIHILGICGTFMGSLAVLAKESGHRVTGSDANVYPPMSTQLQAQGIELTQGYDPAQLDPAPDLVVVGNALSRGNPAVEYVLNKGLPYVSGPQWLADHVLQDRWVLAVAGTHGKTTTSSMLAWVLEHAGMSPGFLIGGIPQNFAVSARLGDTPFFVVEADEYDSAFFDKRSKFVHYRPRTAILNNLEFDHADIFPDLPAIERQFHHLVRTIPSEGLVIHPTTEPALSRVIEMGCWTPVQTTGDGGQWQARLLSEDGSRFEVLFEGELQGAVEWDMTGQHNVANALATLAAARHVGVVPSLGVQALSAFKSVKRRMEKVAEVRGITIYDDFAHHPTAIATTLDGLRKKIGDAPIIAVIEPRSNSMKLGAHRDGLPESVSQADQVVWYAPPNLGWDLAATVAGGSVPSTVCDSLEAIIARVHSQVQPGTHIVIMSNGGFGGLHGKLAEALK | failed
MKARAILLASVLLVGCQASKHDGTVEQRAQSLSAAGQGEAGKFTSQARWLDDGTFYAQDQDLWTSIGDELKMGIPDNPRIREQKQKYLRNKSYLHDVTLRAEPYMYWIAGQVKKRNMPMELVLLPIVESAFDPHATSGANAAGIWQIIPSTGRNYGLKQTRSYDARRDVVASTTAALDMMQRLNKMFDGDWLLTVAAYNSGEGRVMKAVKANRSRGKPTDFWSLSLPHETKIYVPKMLALSDILKNSKRYGVKLPTADESRALARVRLDSPVDISQLADMAGMPVSKLKTFNAGVKGSTLGASGPKYVMVPQKHAAQLRESLASGDIAAVQPTQLADNTPLTSRSYKVRSGDTISGIASRLGVTTRDLQQWNNLRGSGLKVGQNLVIGAGSSAQRLANNSDSITYRVRKGDSLSSIAKRHGVNIRDVMRWNSDTDNLRPGDQLTLFVKNNDRPES | failed
MIVRRTIDKDELKELPKTVFPGRIYVIQSEAETEKAVAYLQSRPVIGIDSETRPSFTKGQSHKVALLQISSEECCFLFRLNMTGLTQPLVDLLENPAVIKVGLSLKDDFMMLHKRAPFTQQSCIELQDYVRQFGIQDKSLQKIYAILFKEKISKSQRLSNWEADVLSDGQKQYAATDAWACLNIYNLLQELKQTGDWEVSPLTATVSPAEEVISNKISD | failed
MALMQELYSTPASRLDSFVAQWLQPHREWKEEVLDAVRTVEEFLRQEHFQGKRGLDQDVRVLKVVKVGSFGNGTVLRSTREVELVAFLSCFHSFQEAAKHHKDVLRLIWKTMWQSQDLLDLGLEDLRMEQRVPDALVFTIQTRGTAEPITVTIVPAYRALGPSLPNSQPPPEVYVSLIKACGGPGNFCPSFSELQRNFVKHRPTKLKSLLRLVKHWYQQYVKARSPRANLPPLYALELLTIYAWEMGTEEDENFMLDEGFTTVMDLLLEYEVICIYWTKYYTLHNAIIEDCVRKQLKKERPIILDPADPTLNVAEGYRWDIVAQRASQCLKQDCCYDNRENPISSWNVKRARDIHLTVEQRGYPDFNLIVNPYEPIRKVKEKIRRTRGYSGLQRLSFQVPGSERQLLSSRCSLAKYGIFSHTHIYLLETIPSEIQVFVKNPDGGSYAYAINPNSFILGLKQQIEDQQGLPKKQQQLEFQGQVLQDWLGLGIYGIQDSDTLILSKKKGEALFPAS | failed
ILTENTPYFEQLSVPQRSVGRIIGRGGETIRSICKASGAKITCDKESEGTLLLSRLIKISGTQKEVAAAKHLILEKVSEDEELRKRIAHSA | not failed
MIYLLLGAVIITFLLWPRGRALLKGDGWRVGAGAAAIAAFAVAAYATIRGAWGTGIVLGVIGLWSVTEARRRPIVRREVVHPPKPELSLSEARAILGVGPEASLAEVKAAYNRLIQMAHPDKGGTEGLAAQLNAARDRLIKPRGSARVEP | failed
